Data as given in article PMC3158298.

Biological target: CC-Aβ_(1-40)E22Δ
Assay: split tetra-Cys FlAsH fluorescence

- FlAsH fluorescence intensity relative to CC-Aβ (1-40): 1.5 fold
Substance: CC-Aβ_(1-40)E22Δ (peptide)
